Measured values taken from paper PMC7857400.

Target: SARS-CoV-2 spike protein receptor binding domain (RBD) (SARS-CoV-2) (UniProt P0DTC2)

| Substance | IC50 of neutralisation, pseudovirus luciferase assay |
| --- | --- |
| homotrimeric Nb20 (Nb20_(3)) | 4.1 pM |
| homotrimeric Nb21 (Nb21_(3)) | 1.3 pM |
